We go through 22 molecules from patent US11180770B2, “HPPD variants and methods of use” (BASF Agricultural Solutions Seed US LLC, priority 2017, dated 2021).

Positions count from the first letter of the chain named.

In the data set the test system is HPPD polypeptides. Description: coupled HPPD activity assay: turnover and residual turnover in crude extracts. In kind it is biochemical, Pseudomonas fluorescens. As to conditions: for Turnover: absence of Cmpd. 1, kinetic changes in absorbance (OD) at 320 nm, 30 min; for Turnover / Residual turnover: high substrate concentration; for Residual turnover [%]: 100 μM Cmpd. 1, signal change with inhibitor divided by signal change without inhibitor; for Residual turnover: presence of 100 μM Cmpd. 1, changes in absorbance (OD) at 320 nm.

B1: 13 (protein)
chain: MADLYENPMGLMGFEFIEFASPTPGTLEPIFEIMGFTKVATHRSKNVHLYRQGEINLILNNEPNSIASYFAAEHGPSVCGMAFRVKDSQKAYNRALELGAQPIHIDTGPMELNLPAIKGIGGAPLYLIDRFGEGSSIYDIDFVYLEGVERNPVGAGLKVIDHLTHNVYRGRMVYWANFYEKLFNFREARYFDIKGEYTGLTSKAMSAPDGMIRIPLNEESSKGAGQIEEFLMQFNGEGIQHVAFLTDDLVKTWDALKKIGMRFMTAPGDNYYEMLEGRLPDHGEPVDQLQARGILLDGSSVEGDKRLLLQIFSETLMGPVFFEFIQRKGDDGFGPDSFKVLFESVERDQVRRGVLTAD
modifications: mutant HPPD polypeptide
In turn, B1 came in with a Turnover of 0.024.

B2: 21 (protein)
chain: B1 chain with G268A, N270T, S344Q
modifications: mutant HPPD polypeptide
As to B2, the “Residual turnover [%]” value is 51%, the Turnover stood at 0.157 and the Residual turnover is 0.080.

B3: 14 (protein)
chain: B1 chain with G268P
modifications: mutant HPPD polypeptide
With B3, the “Residual turnover [%]” value was determined as 33%, the Turnover turned out to be 0.188 and the Residual turnover is given as 0.062.

B4: 19 (protein)
chain: B1 chain with G268R, N270E
modifications: mutant HPPD polypeptide
B4: the “Residual turnover [%]” value was determined as 45%, the Turnover worked out at 0.141 and the Residual turnover worked out at 0.063.

B5: 34 (protein)
chain: B1 chain with D336H
modifications: mutant HPPD polypeptide
Turning to B5, the “Residual turnover [%]” value is given as 47%, the Turnover came out at 0.243 and the Residual turnover worked out at 0.113.

B6: 27 (protein)
chain: B1 chain with G268A, D336H, V345I
modifications: mutant HPPD polypeptide
B6: the “Residual turnover [%]” value came to 38%, the Turnover was 0.266 and the Residual turnover worked out at 0.101.

B7: 28 (protein)
chain: B1 chain with D336H, V345I
modifications: mutant HPPD polypeptide
Regarding B7, the “Residual turnover [%]” value stood at 43%, the Turnover is given as 0.204 and the Residual turnover is given as 0.088.

B8: 29 (protein)
chain: B1 chain with G268P, D336H, V345I
modifications: mutant HPPD polypeptide
Regarding B8, the “Residual turnover [%]” value is recorded as 29%, the Turnover turned out to be 0.289 and the Residual turnover amounted to 0.084.

B9: 25 (protein)
chain: B1 chain with N270T, D336H, V345I
modifications: mutant HPPD polypeptide
Regarding B9, the “Residual turnover [%]” value is on record as 39%, the Turnover was found to be 0.215 and the Residual turnover stood at 0.083.

B10: 33 (protein)
chain: B1 chain with G268A, D336H
modifications: mutant HPPD polypeptide
With B10, the “Residual turnover [%]” value is 46%, the Turnover is on record as 0.189 and the Residual turnover turned out to be 0.087.

B11: 32 (protein)
chain: B1 chain with G268P, N270T, D336H
modifications: mutant HPPD polypeptide
With B11, the “Residual turnover [%]” value is on record as 39%, the Turnover stood at 0.326 and the Residual turnover came out at 0.128.

B12: 20 (protein)
chain: B1 chain with G268S, N270E
modifications: mutant HPPD polypeptide
Consider B12, for which the “Residual turnover [%]” value stood at 53%, the Turnover was found to be 0.199 and the Residual turnover came to 0.105.

B13: 31 (protein)
chain: B1 chain with N270T, D336H
modifications: mutant HPPD polypeptide
In the case of B13, the “Residual turnover [%]” value came out at 37%, the Turnover stood at 0.268 and the Residual turnover is listed as 0.098.

B14: 23 (protein)
chain: B1 chain with G268P, N270T, S344Q
modifications: mutant HPPD polypeptide
For the molecule B14, the “Residual turnover [%]” value is recorded as 39%, the Turnover was 0.193 and the Residual turnover worked out at 0.076.

B15: 30 (protein)
chain: B1 chain with G268A, N270T, D336H
modifications: mutant HPPD polypeptide
Turning to B15, the “Residual turnover [%]” value came out at 48%, the Turnover is on record as 0.311 and the Residual turnover was 0.149.

B16: 16 (protein)
chain: B1 chain with G268S
modifications: mutant HPPD polypeptide
On to B16, for which the “Residual turnover [%]” value was determined as 46%, the Turnover was found to be 0.181 and the Residual turnover is reported as 0.083.

B17: 24 (protein)
chain: B1 chain with G268A, N270T, D336H, V345I
modifications: mutant HPPD polypeptide
Consider B17, for which the “Residual turnover [%]” value is on record as 39%, the Turnover was 0.271 and the Residual turnover was found to be 0.105.

B18: 26 (protein)
chain: B1 chain with G268P, N270T, D336H, V345I
modifications: mutant HPPD polypeptide
For the molecule B18, the “Residual turnover [%]” value was found to be 28%, the Turnover is reported as 0.279 and the Residual turnover was found to be 0.077.

B19: 18 (protein)
chain: B1 chain with G268P, N270E
modifications: mutant HPPD polypeptide
With B19, the “Residual turnover [%]” value was determined as 43%, the Turnover is 0.134 and the Residual turnover is 0.057.

B20: 22 (protein)
chain: B1 chain with N270T, S344Q
modifications: mutant HPPD polypeptide
For B20, the “Residual turnover [%]” value came out at 47%, the Turnover is 0.132 and the Residual turnover turned out to be 0.062.

B21: 17 (protein)
chain: B1 chain with G268A, N270E
modifications: mutant HPPD polypeptide
With B21, the “Residual turnover [%]” value is recorded as 59%, the Turnover was 0.138 and the Residual turnover is on record as 0.081.

B22: 15 (protein)
chain: B1 chain with G268R
modifications: mutant HPPD polypeptide
Regarding B22, the Turnover was 0.040 and the Residual turnover is 0.030.
